Test results as given in IntAct's records for PubMed 32073997.

B1: AKT-interacting protein (Homo sapiens), Q9H8T0 (parent)
chain: MNPFWSMSTSSVRKRSEGEEKTLTGDVKTSPPRTAPKKQLPSIPKNALPITKPTSPAPAAQSTNGTHASYGPFYLEYSLLAEFTLVVKQKLPGVYVQPSYRSALMWFGVIFIRHGLYQDGVFKFTVYIPDNYPDGDCPRLVFDIPVFHPLVDPTSGELDVKRAFAKWRRNHNHIWQVLMYARRVFYKIDTASPLNPEAAVLYEKDIQLFKSKVVDSVKVCTARLFDQPKIEDPYAISFSPWNPSVHDEAREKMLTQKKPEEQHNKSVHVAGLSWVKPGSVQPFSKEEKTVAT
partner: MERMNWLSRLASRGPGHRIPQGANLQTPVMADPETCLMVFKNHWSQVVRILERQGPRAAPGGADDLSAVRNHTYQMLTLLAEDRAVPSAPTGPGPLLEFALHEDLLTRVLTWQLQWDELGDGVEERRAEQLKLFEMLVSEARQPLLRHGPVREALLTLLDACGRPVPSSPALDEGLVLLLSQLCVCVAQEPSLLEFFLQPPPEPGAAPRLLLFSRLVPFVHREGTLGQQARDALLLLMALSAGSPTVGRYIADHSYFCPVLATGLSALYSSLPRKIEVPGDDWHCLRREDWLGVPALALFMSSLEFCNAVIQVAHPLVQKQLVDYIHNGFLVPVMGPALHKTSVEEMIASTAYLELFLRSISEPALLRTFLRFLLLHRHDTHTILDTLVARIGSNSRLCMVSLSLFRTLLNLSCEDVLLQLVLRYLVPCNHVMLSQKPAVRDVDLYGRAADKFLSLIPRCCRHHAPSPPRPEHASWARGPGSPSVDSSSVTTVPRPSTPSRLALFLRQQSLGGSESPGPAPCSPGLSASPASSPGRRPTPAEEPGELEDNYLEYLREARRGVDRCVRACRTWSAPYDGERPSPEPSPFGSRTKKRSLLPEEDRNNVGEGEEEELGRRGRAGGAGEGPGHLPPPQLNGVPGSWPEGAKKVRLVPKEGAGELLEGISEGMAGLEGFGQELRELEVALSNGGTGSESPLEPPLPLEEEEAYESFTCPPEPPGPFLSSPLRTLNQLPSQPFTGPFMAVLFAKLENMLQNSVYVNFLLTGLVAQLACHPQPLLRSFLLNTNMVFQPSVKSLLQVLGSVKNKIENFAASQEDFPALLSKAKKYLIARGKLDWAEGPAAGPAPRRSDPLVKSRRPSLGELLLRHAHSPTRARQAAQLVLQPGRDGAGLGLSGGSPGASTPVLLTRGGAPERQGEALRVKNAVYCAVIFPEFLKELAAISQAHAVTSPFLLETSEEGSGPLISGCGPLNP
B2: AKT-interacting protein (Homo sapiens), Q9H8T0 (parent)
chain: B1 chain
partner: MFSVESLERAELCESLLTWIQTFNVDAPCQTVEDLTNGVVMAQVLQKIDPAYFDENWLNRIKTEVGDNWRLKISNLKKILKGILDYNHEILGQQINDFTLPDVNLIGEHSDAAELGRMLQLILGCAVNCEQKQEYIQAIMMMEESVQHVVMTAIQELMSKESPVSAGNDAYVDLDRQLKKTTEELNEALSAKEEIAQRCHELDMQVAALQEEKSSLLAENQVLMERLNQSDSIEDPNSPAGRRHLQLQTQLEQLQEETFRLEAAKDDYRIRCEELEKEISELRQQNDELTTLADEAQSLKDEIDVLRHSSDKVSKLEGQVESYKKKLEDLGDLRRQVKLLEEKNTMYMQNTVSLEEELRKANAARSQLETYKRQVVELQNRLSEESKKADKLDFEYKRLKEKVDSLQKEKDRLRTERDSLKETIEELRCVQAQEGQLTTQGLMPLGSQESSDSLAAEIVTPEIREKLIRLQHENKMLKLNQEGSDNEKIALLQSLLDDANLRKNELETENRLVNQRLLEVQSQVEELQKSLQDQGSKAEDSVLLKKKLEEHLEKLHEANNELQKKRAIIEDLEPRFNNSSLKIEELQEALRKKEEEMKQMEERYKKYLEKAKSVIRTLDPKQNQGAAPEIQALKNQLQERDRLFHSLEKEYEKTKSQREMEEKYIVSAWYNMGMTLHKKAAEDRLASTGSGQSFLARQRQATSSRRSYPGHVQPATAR
B3: AKT-interacting protein (Homo sapiens), Q9H8T0 (parent)
chain: B1 chain
partner: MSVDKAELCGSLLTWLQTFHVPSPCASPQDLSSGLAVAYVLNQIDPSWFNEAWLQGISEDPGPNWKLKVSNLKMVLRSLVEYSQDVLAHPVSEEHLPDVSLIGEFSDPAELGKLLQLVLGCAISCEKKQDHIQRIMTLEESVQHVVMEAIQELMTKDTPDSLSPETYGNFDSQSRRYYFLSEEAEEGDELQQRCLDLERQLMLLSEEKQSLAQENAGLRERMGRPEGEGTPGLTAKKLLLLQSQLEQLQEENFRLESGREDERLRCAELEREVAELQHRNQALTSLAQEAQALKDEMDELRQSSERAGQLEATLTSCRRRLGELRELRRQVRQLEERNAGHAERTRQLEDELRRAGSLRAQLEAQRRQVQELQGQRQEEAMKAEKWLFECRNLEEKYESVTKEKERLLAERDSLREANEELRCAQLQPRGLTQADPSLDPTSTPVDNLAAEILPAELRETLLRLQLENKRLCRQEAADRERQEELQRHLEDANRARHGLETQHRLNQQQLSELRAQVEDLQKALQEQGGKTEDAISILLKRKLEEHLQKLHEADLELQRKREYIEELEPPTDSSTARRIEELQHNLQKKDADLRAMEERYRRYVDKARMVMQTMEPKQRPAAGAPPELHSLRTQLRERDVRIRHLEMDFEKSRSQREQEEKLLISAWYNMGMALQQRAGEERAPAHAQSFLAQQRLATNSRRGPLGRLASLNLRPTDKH

Variants of: B1
Conditions: with FHIP1B

effect of a mutation on the interaction | Variant
disrupting interaction strength | W106A;F107A

Variants of: B2
Conditions: with hook3_human HOOK3, Q86VS8

effect of a mutation on the interaction | Variant
decreasing interaction strength | W106A;F107A

Variants of: B3
Conditions: with hook2_human HOOK2, Q96ED9

effect of a mutation on the interaction | Variant
disrupting interaction strength | W106A;F107A
